Source: patent US20220089678A1 (CARTESIAN THERAPEUTICS, published 2022)
Numbering of substitutions follows the chain as printed.

B1: CAR comprising scFv-1′ (SEQ ID NO: 62) (other)
chain: DIVLTQSPSSLSASVGDRATISCRASESVTILGSHLIHWYQQKPGQAPKLLIQLASNVQTGVPARFSGSGSGTDFTLTISSVEPEDVAVYYCLQSRTIPRTFGQGTKVEIKGSTSGSGKPGSGEGSTKGQIQLVQSGPELKKPGGSVKISCAASGYTFTSYDINWVRQAPGKGLEWVGWINTETREPAYAYDFRGRFTFSADTSKSTAYLQMNSLRAEDTAVYYCALDYSYAMDYWGQGTLVTVSS
notes: CAR on mRNA-electroporated human CD8+ T cells; Only the scFv is identified; not shown: rest of the CAR (hinge, transmembrane, cytoplasmic domains) not specified for this construct
B2: CAR comprising scFv-11′ (SEQ ID NO: 67) (other)
chain: B1 chain with E183N, R185G, E186N, A188T, Y191Q, D192G, R194T, S230T, A232G
notes: as for B1
B3: CAR comprising scFv-4′ (SEQ ID NO: 63) (other)
chain: B1 chain with S160D, D162S, S230T, A232G
notes: as for B1
B4: CAR comprising scFv-8′ (SEQ ID NO: 64) (other)
chain: DIVLTQSPSSLSASVGDRATISCRASESVSFLGINLIHWYQQKPGQAPKLLIYSASNLQSGVPARFSGSGSGTDFTLTISSVEPEDVAVYYCLQSRTLPRTFGQGTKVEIKGSTSGSGKPGSGEGSTKGQIQLVQSGPELKKPGGSVKISCAASGYTFTDYSINWVRQAPGKGLEWVGWINTETREPAYAYDFRGRFTFSADTSKSTAYLQMNSLRAEDTAVYYCALDYSYAMDYWGQGTLVTVSS
notes: as for B1
B5: CAR comprising scFv-10′ (SEQ ID NO: 66) (other)
chain: B1 chain with D162S, Y191Q, D192G, R194T, S230L, A232S, M233L, Y235F
notes: as for B1
B6: CAR comprising scFv-9′ (SEQ ID NO: 65) (other)
chain: B4 chain with R96K, T97N, L98F
notes: as for B1
B7: CAR comprising scFv-Yi2 (SEQ ID NO: 55) (other)
chain: DIQLTQSPSSLSASVGDRVTITCRASQSVTILGSHLIHWYQQKPGKAPKLLIQLASNVQTGVPSRFSGSGSGTDFTLTISSLQPEDVATYYCLQSRTIPRTFGQGTKLEIKGSTSGSGKPGSGEGSTKGQVQLVQSGGGLVQPGRSVKLSCAASGYTFTDYSINWVRQAPGKGLEWVGWINTETREPAYAYDFRGRFTISRDTSKNTAYLQMNSLRAEDTAVYYCARDYSYAMDYWGQGTLVTVSS
notes: as for B1
B8: CAR comprising scFv-J4 (SEQ ID NO: 52) (other)
chain: DIVMTQSPDSLSVSLGERATINCRASESVTILGSHLIHWYQQKPGQPPKLLIQLASNVQTGVPDRFSGSGSGTDFTLTISSLQAEDVAVYYCLQSRTIPRTFGGGTKVEIKGSTSGSGKPGSGEGSTKGQIQLVQSGAEVKKPGESVKISCKASGYTFTDYSINWVRQAPGQGLKWMGWINTETREPAYAYDFRGRFAFSLDTSASTAYLQISSLKAEDTAVYFCALDYSYAMDYWGQGTLVTVSS
notes: as for B1
B9: CAR comprising scFv-Y31 (SEQ ID NO: 56) (other)
chain: B1 chain with S160D, D162S, R167K
notes: as for B1
B10: CAR comprising scFv-Y34 (SEQ ID NO: 59) (other)
chain: B1 chain with Q135E, P138A, L140V, I149V, A152K, S160D, D162S, T198A, F199I, D202E
notes: as for B1
B11: CAR comprising scFv-Yi1 (SEQ ID NO: 54) (other)
chain: B1 chain with E85D, Q104G, V108L, S160D, D162S, R167K, A201L
notes: CAR on mRNA-electroporated human CD8+ T cells; not shown: rest of the CAR (hinge, transmembrane, cytoplasmic domains) not specified for this construct
B12: CAR comprising scFv-Y33 (SEQ ID NO: 58) (other)
chain: B1 chain with Q135E, P138A, L140V, S160D, D162S, R167K, A201L
notes: as for B1
B13: CAR comprising scFv-J2 (SEQ ID NO: 50) (other)
chain: DIVLTQSPASLAVSLGERATISCRASESVSILGSHLLHWYQQKPGQPPKLLIYLASNLQTGVPARFSGSGSGTDFTLTISSLEAEDVAVYYCLQSRTIPRTFGQGTKLEIKGSTSGSGKPGSGEGSTKGQIQLVQSGAEVKKPGASVKISCKASGYTFTDYSINWVRQAPGQGLEWMGWINTETREPAYAYDFRGRVTMTRDTSASTAYLQISSLKAEDTAVYFCALDYSYAMDYWGQGSLVTVSS
notes: as for B1
B14: CAR comprising scFv-J1 (SEQ ID NO: 49) (other)
chain: B8 chain with E145A, K175E, F197V, A198T, F199M, S200T, L201R, T240S
notes: as for B1
B15: CAR comprising scFv-J5 (SEQ ID NO: 53) (other)
chain: DIVLTQSPASLAVSLGERATISCRASESVSILGSHYLAWYQQKPGQPPKLLIYLASNLQTGVPARFSGSGSGTDFTLTISSLEAEDVAVYYCQQSRTIPRTFGQGTKLEIKGSTSGSGKPGSGEGSTKGQIQLVQSGAEVKKPGESVKISCKASGYTFTDYSINWVRQAPGQGLKWMGWINTETREPAYAYDFRGRFAFSLDTSASTAYLQISSLKAEDTAVYFCALDYSYAMDYWGQGTLVTVSS
notes: as for B1
B16: CAR comprising scFv-J3 (SEQ ID NO: 51) (other)
chain: B13 chain with E17K, S30T, L37I, L58V, I131V
notes: as for B1
B17: CAR comprising scFv-CAS2 (C2) (SEQ ID NO: 61) (other)
chain: DIVLTQSPASLAVSPGQRATISCRASESVTILGSHLIHWYQQKPGQPPKLLIQLASNVQTGVPARFSGSGSRTDFTLTISSLEPEDVAVYYCLQSRTIPRTFGQGTKVEIKGSTSGSGKPGSGEGSTKGQITLKESGPTLVKPTQTLTLSCKASGYTFTDYSINWVRRAPGKGLEWMGWINTETREPAYAYDFRGRFVFSLDTSVSMAYLQISSLKAEDTAVYYCALDYSYAMDYWGQGTLVTVSS
notes: as for B1

Target: T1, human BCMA on cells (human, UniProt Q02223 1-184)
T1 sequence: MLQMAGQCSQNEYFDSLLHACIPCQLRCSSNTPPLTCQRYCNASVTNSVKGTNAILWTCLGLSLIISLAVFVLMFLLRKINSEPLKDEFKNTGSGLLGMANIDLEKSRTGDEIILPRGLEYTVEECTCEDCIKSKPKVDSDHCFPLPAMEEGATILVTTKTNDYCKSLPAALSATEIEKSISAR
Assay: cell-based or functional assay

Point of comparison: B4, “Killing (% killed), Effector:target ratio of 1:2” value 26%. Against it:
- B1 — lower, 3%
- B2 — lower, 0%
- B3 — higher, 78%
- B5 — higher, 81%
- B6 — higher, 86%

Target: T2, phycoerythrin (PE)-conjugated BCMA (Recombinant Human TNFRSF17 protein, Fc/His-tagged, R-PE labeled); Creative … (human, UniProt Q02223 1-54, R-PE labeled)
T2 construct: Bought reagent; also called BCMA-PE; not shown: Fc/His tag of the bought reagent
T2 sequence: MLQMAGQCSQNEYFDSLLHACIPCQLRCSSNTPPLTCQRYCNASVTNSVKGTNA
Assay: flow cytometry; CAR T cells stained with BCMA-PE, 3 days after electroporation
Experimental: (§1) CAR T cells obtained from the above-described process were tested for viability, CAR protein expression, BCMA binding, and cytotoxicity, i.e., the ability to kill BCMA+ myeloma (tumor) cells. Viability, CAR expression, and BCMA binding were determined by flow cytometry on a GUAVA® […]® 12HT Flow cytometer (EMD Millipore). To test viability, a sample of the CAR T cells was mixed with propidium iodide and run on the flow cytometer with electronic gating on fluorescence in the near infrared channel. To test CAR protein expression and BCMA binding, a sample of the CAR T cells was incubated with 0.4 ug/mL of phycoerythrin (PE)-conjugated BCMA (Recombinant Human TNFRSF17 protein, Fc/His-tagged, R-PE labeled; Creative Biomart, Shirley, N.Y.). CAR expression was assessed on the flow cytometer with electronic gating on fluorescence in the yellow channel to detect presence or absence of emission from BCMA-PE on CAR-positive and CAR-negative cells. BCMA binding was determined by measuring the intensity of fluorescence in the yellow channel to determine the relative quantity of BCMA-PE bound to labelled CAR-positive cells. For the viability, expression, and BCMA binding assays, CD8+ T cells electroporated without mRNA (CAR-negative T Cells) were tested as a parallel control.
For each of the mRNA constructs, CAR T cells were prepared by transfection into human CD8+ cells, as described in Example 1. The CAR T cells made from each mRNA construct were then tested 3 days after electroporation for BCMA binding and tumor killing, as described in Example 1.

Point of comparison: B4, “BCMA Binding (arbitrary units)” value 496 arbitrary units. Against it:
- B1 — lower, 189 arbitrary units
- B2 — lower, 310 arbitrary units
- B3 — lower, 439 arbitrary units
- B5 — lower, 269 arbitrary units
- B6 — lower, 173 arbitrary units

Target: T2, phycoerythrin (PE)-conjugated BCMA …
Assay: as above
Remark: another data set of the same source
Experimental: as §1
Numerous CAR-encoding mRNA constructs were prepared using the mRNA construct of SEQ ID: 29 as a starting point (which encodes a CAR of sequence SEQ ID: 19 and comprises the scFv of sequence SEQ ID: 48). These constructs encoded the same or substantially the same amino acid residues in the scFv complementary-determining regions (CDRs) but varied with respect to the amino acid residues in the scFv framework regions. In making these variations, the experimenter's intent was to humanize the scFv framework regions without reducing BCMA-binding and tumor-killing properties of CAR T cells that express the CAR. For each of the mRNA constructs, CAR T cells were prepared by transfection into human CD8+ cells, substantially as described in Example 1. The CAR T cells made from each mRNA construct were then tested 3 days after electroporation for BCMA binding and/or tumor killing, as substantially described in Example 1.

Point of comparison: B13, “BCMA Binding (relative to SEQ ID: 48)” value 51 relative to SEQ ID: 48 = 100. Against it:
- B7 — lower, 12 relative to SEQ ID: 48 = 100
- B8 — higher, 82 relative to SEQ ID: 48 = 100
- B11 — higher, 141 relative to SEQ ID: 48 = 100
- B14 — higher, 76 relative to SEQ ID: 48 = 100
- B15 — higher, 103 relative to SEQ ID: 48 = 100
- B16 — higher, 54 relative to SEQ ID: 48 = 100

Point of comparison: B9, “BCMA Binding (relative to SEQ ID: 54)” value 58 relative to SEQ ID: 54 = 100. Against it:
- B10 — higher, 79 relative to SEQ ID: 54 = 100
- B11 — higher, 100 relative to SEQ ID: 54 = 100
- B12 — lower, 40 relative to SEQ ID: 54 = 100

With B17 the “BCMA Binding” value was 34 relative (SEQ ID: 48 = 100).
